What is called Kd is the equilibrium constant for the complex coming apart.

Data set [1] concerns GGHYrFK-amide (synthetic).
The test system of data set [2] is GGhyrfk-amide (synthetic). The settings on record: Cu complex; Vmax 2.86 RFU/min.
Data set [3] concerns GGHYrFK-amide (synthetic). In words: cleavage_in_vitro. To be noted: Cu complex; KM 0.85 µM; turnover number 32; 1 mM ascorbate, 1 mM H2O2.

Take “GGCAGAAAGCGUCUAGCCAUGGCGUUAGUAUGCC [HCV IRES SL IIb RNA]”: the Kd in data set [1] came to 0.044 µM; in data set [2], 6.09 µM. Further, the activity in data set [3] was 0.53 min-1 (kcat).
